# T1: Rat ROBO2 on cells (rat, UniProt Q7TPD3 22-1469 (mouse entry))
# T1 chain: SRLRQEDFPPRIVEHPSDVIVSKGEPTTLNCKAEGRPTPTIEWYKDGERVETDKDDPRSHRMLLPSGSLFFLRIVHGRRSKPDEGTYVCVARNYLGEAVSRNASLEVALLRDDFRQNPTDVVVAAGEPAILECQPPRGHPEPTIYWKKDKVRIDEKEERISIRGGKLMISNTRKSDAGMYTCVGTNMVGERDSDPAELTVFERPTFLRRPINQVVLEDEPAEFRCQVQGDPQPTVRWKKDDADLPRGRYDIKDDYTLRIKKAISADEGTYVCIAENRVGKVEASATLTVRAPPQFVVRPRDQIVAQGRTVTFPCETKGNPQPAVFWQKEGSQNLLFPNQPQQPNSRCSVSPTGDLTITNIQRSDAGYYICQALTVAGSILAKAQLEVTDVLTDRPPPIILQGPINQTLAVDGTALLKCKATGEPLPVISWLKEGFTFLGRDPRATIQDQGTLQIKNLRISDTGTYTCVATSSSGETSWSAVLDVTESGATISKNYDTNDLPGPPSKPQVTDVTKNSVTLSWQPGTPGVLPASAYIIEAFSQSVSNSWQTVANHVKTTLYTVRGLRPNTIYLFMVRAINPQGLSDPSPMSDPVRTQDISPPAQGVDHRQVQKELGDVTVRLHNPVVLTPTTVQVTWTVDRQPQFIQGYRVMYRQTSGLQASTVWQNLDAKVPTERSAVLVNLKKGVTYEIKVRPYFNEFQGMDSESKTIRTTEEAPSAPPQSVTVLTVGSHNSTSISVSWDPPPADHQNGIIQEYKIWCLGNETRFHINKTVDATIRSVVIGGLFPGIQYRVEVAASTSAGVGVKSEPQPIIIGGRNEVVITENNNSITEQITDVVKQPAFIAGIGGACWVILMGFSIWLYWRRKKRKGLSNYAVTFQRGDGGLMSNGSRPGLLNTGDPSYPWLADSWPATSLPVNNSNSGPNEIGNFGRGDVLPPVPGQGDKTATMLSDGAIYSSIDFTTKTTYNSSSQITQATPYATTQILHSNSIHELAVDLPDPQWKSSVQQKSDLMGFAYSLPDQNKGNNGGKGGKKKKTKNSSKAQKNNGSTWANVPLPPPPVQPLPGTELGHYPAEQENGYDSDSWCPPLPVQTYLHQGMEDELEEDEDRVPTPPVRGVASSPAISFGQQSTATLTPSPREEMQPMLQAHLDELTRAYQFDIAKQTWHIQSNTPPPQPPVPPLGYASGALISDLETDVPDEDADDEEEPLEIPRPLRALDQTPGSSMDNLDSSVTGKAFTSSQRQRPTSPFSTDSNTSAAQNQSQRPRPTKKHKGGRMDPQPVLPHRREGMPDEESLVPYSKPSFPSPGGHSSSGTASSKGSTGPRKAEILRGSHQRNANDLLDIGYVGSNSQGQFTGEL
# Molecular target: T1, Rat ROBO2 on cells
# Assay: cell-based or functional assay
row,Binder,"IC50 (nM), SVZa assay"
1,"93H2 (antibody, human IgG1, kappa, V domains shown, also called parental 93H2; 93H2 mAb) VH: EVQLVQSGAEVKKPGASVKVSCKASGYTFTGYYMHWVRQAPGQGLEWMGWINPNSGATNFPQKFQGRVTMTRDTSITTAYMDLSRLRSDDTAVYYCARESGDDAFDIWGQGTMVTVSS VL: not shown",1.69 nM
2,"Abcs25 (antibody, human IgG1, kappa, V domains shown, chain-shuffled IgG) VH: EVQLVQSGAEVKKPGASVKVSCKASGYTFTGYYMHWVRQAPGQGLEWMGWINPKDGDTEFPQKFQGRVTMTRDTSITTAYMDLSRLRSDDTAVYYCARESGDDAFDIWGQGTMVTVSS VL: DIVMTQSPSSLSASVGDRVTITCRASQSISSYLNWYQQKPGKAPKLLIYAASSLQSGVPSRFSGSGSGTDFTLTISSLQPEDFATYYCQQSVGLSFGGGTKVEIKR",0.31 nM
3,"Abcs20 (antibody, human IgG1, kappa, V domains shown, chain-shuffled IgG) VH: EVQLVQSGAEVKKPGASVKVSCKASGYTFTGYYMHWVRQAPGQGLEWMGWINPKNGDTEFPQKFQGRVTMTRDTSITTAYMDLSRLRSDDTAVYYCARESGDDAFDIWGQGTMVTVSS VL: DIVMTQSPSSLSASVGDRVTITCRASQSISSYLNWYQQKPGKAPKLLIYAASSLQSGVPSRFSGSGSGTDFTLTISSLQPEDFATYYCQQSVGLSFGGGTKVEIKR",0.47 nM
4,"Abcs35 (antibody, human IgG1, kappa, fully human IgG1; VH of Ab96 with VL of Ab123) heavy: EVQLVQSGAEVKKPGASVKVSCKASGYTFTGYYMHWVRQAPGQGLEWMGWINPKNGDTEFPQKFQGRVTMTRDTSITTAYMDLSRLRSDDTAVYYCARESGDDAFDIWGQGTMVTVSSASTKGPSVFPLAPSSKSTSGGTAALGCLVKDYFPEPVTVSWNSGALTSGVHTFPAVLQSSGLYSLSSVVTVPSSSLGTQTYICNVNHKPSNTKVDKKVEPKSCDKTHTCPPCPAPEAAGAPSVFLFPPKPKDTLMISRTPEVTCVVVDVSHEDPEVKFNWYVDGVEVHNAKTKPREEQYNSTYRVVSVLTVLHQDWLNGKEYKCKVSNKALPAPIEKTISKAKGQPREPQVYTLPPSREEMTKNQVSLTCLVKGFYPSDIAVEWESNGQPENNYKTTPPVLDSDGSFFLYSKLTVDKSRWQQGNVFSCSVMHEALHNHYTQKSLSLSPGK light: DIVMTQSPSSLSASVGDRVTITCRASQSISSYLNWYQQKPGKAPKLLIYAASSLQSGVPSRFSGSGSGTDFTLTISSLQPEDFATYYCQQSVGLFFGGGTKVEIKRTVAAPSVFIFPPSDEQLKSGTASVVCLLNNFYPREAKVQWKVDNALQSGNSQESVTEQDSKDSTYSLSSTLTLSKADYEKHKVYACEVTHQGLSSPVTKSFNRGEC",0.039 nM

# Results, then the binder that gave them:
row,"IC50 (nM), SVZa assay",Binder
1,0.11 nM,"CTIR2-14 (antibody, human IgG1, kappa, V domains shown, CDR-shuffled IgG) VH: EVQLVQSGAEVKKPGASVKVSCKASGYTFRGYAMHWVRQAPGQGLEWMGWIDPRTGLTKFPQKFQGRVTMTRDTSITTAYMDLSRLRSDDTAVYYCARESGDDAFDIWGQGTMVTVSS VL: DIVMTQSPSSLSASVGDRVTITCRASQKISSYLNWYQQKPGKAPKLLIYAASSLQYGVPSRFSGSGSGTDFTLTISSLQPEDFATYYCQQSLELGFGGGTKVEIKR"
2,0.98 nM,"Abcs55 (antibody, human IgG1, kappa, V domains shown, chain-shuffled IgG) VH: EVQLVQSGAEVKKPGASVKVSCKASGYTFTGYYMHWVRQAPGQGLEWMGWINPKDGDTEFPQKFQGRVTMTRDTSITTAYMDLSRLRSDDTAVYYCARESGDDAFDIWGQGTMVTVSS VL: DIVMTQSPSSLSASVGDRVTITCRASQSISSYLNWYQQKPGKAPKLLIYAASSLQYGVPSRFSGSGSGTDFTLTISSLQPEDFATYYCQQSYSTSFGGGTKVEIKR"
3,0.41 nM,"CTIR2-16 (antibody, human IgG1, kappa, V domains shown, CDR-shuffled IgG) VH: EVQLVQSGAEVKKPGASVKVSCKASGYTFRGYAMHWVRQAPGQGLEWMGWIDPRTGLTKFPQKFQGRVTMTRDTSITTAYMDLSRLRSDDTAVYYCARESGDDAFDIWGQGTMVTVSS VL: DIVMTQSPSSLSASVGDRVTITCRASQKISSYLNWYQQKPGKAPKLLIYAASSLQYGVPSRFSGSGSGTDFTLTISSLQPEDFATYYCQQSVGLFFGGGTKVEIKR"
4,0.11 nM,"Abcs40 (antibody, human IgG1, kappa, V domains shown, chain-shuffled IgG) VH: EVQLVQSGAEVKKPGASVKVSCKASGYTFTGYYMHWVRQAPGQGLEWMGWINPKDGDTEFPQKFQGRVTMTRDTSITTAYMDLSRLRSDDTAVYYCARESGDDAFDIWGQGTMVTVSS VL: DIVMTQSPSSLSASVGDRVTITCRASQSISSYLNWYQQKPGKAPKLLIYAASSLQSGVPSRFSGSGSGTDFTLTISSLQPEDFATYYCQQSVGLFFGGGTKVEIKR"
5,0.02 nM,"CTIR2-15 (antibody, human IgG1, kappa, V domains shown, CDR-shuffled IgG) VH: EVQLVQSGAEVKKPGASVKVSCKASGYTFRGYAMHWVRQAPGQGLEWMGWIDPRTGLTKFPQKFQGRVTMTRDTSITTAYMDLSRLRSDDTAVYYCARESGDDAFDIWGQGTMVTVSS VL: DIVMTQSPSSLSASVGDRVTITCRASQKISSYLNWYQQKPGKAPKLLIYAASSLQYGVPSRFSGSGSGTDFTLTISSLQPEDFATYYCQQSVGLSFGGGTKVEIKR"

# Reference: patent US20200157212A1 (Pfizer, published 2020)
